Experimental findings from PMC2636890 are described below.

The target in assay [1] is soluble recombinant form of HCV E2 glycoprotein (sE2), derived from H77-E2, harbouring a His-tag (UniProt P27958). As to the kind of experiment: flow cytometry on cells (sE2 binding). The conditions noted are these: BRL3A cells expressing only the indicated SR-BI mutant; sE2-containing medium vs. sE2-free medium; mean±SD, n = 3; parent: est. 100; read off a plot. (In general: In flow cytometry, cells or beads pass a laser one at a time.)

The target of assay [2] is SR-BI-Short, a shorter isoform of SR-BI produced by alternative splicing that removes 100 amino acids of the ectodomain (human) (UniProt Q8WTV0).

Bounds are passed on as bounds.

Sequence of UniProt Q8WTV0 (Q8WTV0 other isoform, or with tags, fused parts or gaps): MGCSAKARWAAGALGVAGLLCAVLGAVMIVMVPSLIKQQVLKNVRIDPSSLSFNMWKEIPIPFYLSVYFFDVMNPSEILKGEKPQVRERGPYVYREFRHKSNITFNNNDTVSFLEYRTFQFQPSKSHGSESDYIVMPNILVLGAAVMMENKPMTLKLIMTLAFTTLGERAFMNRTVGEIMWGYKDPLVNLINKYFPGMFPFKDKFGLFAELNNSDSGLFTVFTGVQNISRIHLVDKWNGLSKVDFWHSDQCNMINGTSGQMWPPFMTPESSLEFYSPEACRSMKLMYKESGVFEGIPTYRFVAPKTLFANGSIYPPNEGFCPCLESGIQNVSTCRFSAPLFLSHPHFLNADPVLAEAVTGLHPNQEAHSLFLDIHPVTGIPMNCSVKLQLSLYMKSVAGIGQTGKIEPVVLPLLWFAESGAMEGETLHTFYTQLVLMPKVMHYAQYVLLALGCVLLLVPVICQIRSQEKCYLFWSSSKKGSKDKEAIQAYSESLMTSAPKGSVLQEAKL

With “human scavenger receptor class B type I (SR-BI), wild type (from UniProt Q8WTV0-2) SES”, the percent of parent (% of wt SR-BI (set to 100)) in assay [1] was 100. Regarding “soluble recombinant form of HCV E2 glycoprotein (sE2), derived from H77-E2, harbouring a His-tag (from UniProt P27958 384-661) (domain or fragment)”, in assay [2], the entry of HCVpp (H77 E1E2) into BRL3A-CD81-CLDN1 cells expressing the SR-BI form, fold reduction against wt SR-BI is greater than 10 fold.
